Source: patent US20030166850A1 (Pfizer, published 2003)

How the values were obtained:
[1] = molecular target: T1, proline rich domain of RGS9-2, amino acids 460-672 of human RGS9 (bait, plasmid pAS1-RGS9CT) (human, UniProt O75916 463-674); test: yeast two-hybrid screen of a human fetal brain library
T1 sequence: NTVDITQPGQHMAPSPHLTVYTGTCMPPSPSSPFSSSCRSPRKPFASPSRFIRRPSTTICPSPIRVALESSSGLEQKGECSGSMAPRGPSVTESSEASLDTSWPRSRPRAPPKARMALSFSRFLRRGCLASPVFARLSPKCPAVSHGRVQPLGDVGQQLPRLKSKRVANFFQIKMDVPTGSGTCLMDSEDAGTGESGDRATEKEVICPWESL
Description: (§1) To identify interactors of the proline rich domain of RGS9, amino acids 460-672 of human RGS9 (FIG. 1A), was used as “bait” to screen a pretransformed human fetal brain library (Clontech). The RGS9-2 cDNA used was cloned by PCR from a human brain cDNA library using the primers 5′ primer: […], 3′ primer: […]. The DNA encoding amino acids 460-672 of RGS9-2, was amplified by PCR using the primer sequences 5′ […] and 3′ […] and ligated into the NdeI and BamH 1 sites of pAS1 (Clontech). The pAS1-RGS9CT plasmid was used to transform the yeast strain PJ69-2A (Clontech) using lithium acetate. The library was screened using a yeast mating protocol by incubating the library (MATα) with the bait strain ([…]) overnight at 30° C. according to the manufacturer's protocols. The mating mixture was plated on SD/-His/-Leu/-Trp and incubated at 30° C. until colonies appeared. Colonies were picked and miniprep DNA prepared. The insert in the library plasmid was amplified using the LD-Insert Screening amplimer set of primers (Clontech) and the amplicon sequenced on an ABI 3700 capillary sequencer. The sequences obtained were used as queries against the GENBANK database using BLAST. The 6 most common hits were selected for further study and were replated on SD/-His/-Leu/-Trp containing 0-40 mM […]. […]

[2] = molecular target: T1, proline rich domain of RGS9-2, amino …; test: yeast two-hybrid assay
Description: as §1

Binder	binding result [1]	binding result [2]
evectin clone discovered in the yeast two-hybrid screen (amino acids 101-190) (other, Prey clone from the pretransformed human fetal brain library (Clontech); also called latter half of the evectin protein) KTALLEANSTPVRVYSPYQDYYEVVPPNAHEATYVRSYYGPPYAGPGVTHVIVREDPCYSAGAPLAMGMLAGAATGAALGSLMWSPCWF	binds	
EVT ΔC54 (C terminal deletion mutant of evectin) (other) MALVRGGWLWRQSSILRRWKRNWFALWLDGTLGYYHDETAQDEEDRVLIHFNVRDIKIGPECHDVQPPEGRSRDGLLTVNLREGGRLHLCAETKDDALAWKTALLEANSTPVRVYSPYQDYYEVVPPNAHEATYVR		binds
